What was measured:
MDA5 = MDA5 (UniProt Q9BYX4); experiment: co-IP; settings: reference: API5 wild type; sites S464
RIG‐I = RIG‐I (UniProt O95786); experiment: co-IP; settings: reference: API5 wild type; sites S464
p62 = p62 (UniProt Q13501); experiment: co-IP; settings: reference: API5 wild type; sites S464
His-SRPK1 = target: T1, His-SRPK1 (human (amplified from HEK293T cells), UniProt Q96SB4 1-655); experiment: pull-down; purified GST-API5 (20 ng) or GST (20 ng) incubated with His-SRPK1 (50 ng) at 4 °C for 4 h; captured on GST resin; washed five times with NP-40 lysis buffer; immunoblot; settings: both partners purified
T1 construct: SRPK1, full-length gene amplified from HEK293T cells, in pET-28a; also called pET-28a-SRPK1; source: E. coli BL21 (pLysS), purified (Ni-NTA)

Molecule | binding against the reference (MDA5) | binding against the reference (RIG‐I) | binding against the reference (p62) | binding result (His-SRPK1)
API5 (from UniProt Q9BZZ5) API5 S464A | lost | lost | weaker | –
GST-API5 (natural protein, human, UniProt Q9BZZ5 1-524, looked up, API5, human, full-length gene amplified from HEK293T cells, in pGEX-4T-1; also called pGEX-4T-1-API5; source: E. coli BL21 (pLysS), purified (glutathione resin)) MPTVEELYRNYGILADATEQVGQHKDAYQVILDGVKGGTKEKRLAAQFIPKFFKHFPELADSAINAQLDLCEDEDVSIRRQAIKELPQFATGENLPRVADILTQLLQTDDSAEFNLVNNALLSIFKMDAKGTLGGLFSQILQGEDIVRERAIKFLSTKLKTLPDEVLTKEVEELILTESKKVLEDVTGEEFVLFMKILSGLKSLQTVSGRQQLVELVAEQADLEQTFNPSDPDCVDRLLQCTRQAVPLFSKNVHSTRFVTYFCEQVLPNLGTLTTPVEGLDIQLEVLKLLAEMSSFCGDMEKLETNLRKLFDKLLEYMPLPPEEAENGENAGNEEPKLQFSYVECLLYSFHQLGRKLPDFLTAKLNAEKLKDFKIRLQYFARGLQVYIRQLRLALQGKTGEALKTEENKIKVVALKITNNINVLIKDLFHIPPSYKSTVTLSWKPVQKVEIGQKRASEDTTSGSPPKKSSAGPKRDARQIYNPPSGKYSSNLGNFNYEQRGAFRGSRGGRGWGTRGNRSRGRLY | – | – | – | binds
